Experimental data published in patent publication US20200247901A1 (US Dept. of Health and Human Services, published 2020).

B1: 15B6 anti-mesothelin antibody (IgG2b) (antibody, V domains shown)
VH: EVQLQQSGPVLVKPGASVKISCKASGYSFTGYYMHWVRQSLVKRLEWIGRINPYTGVPSYKHNFKDKASLTVDKSSSTAYMELHSLTSEDSAVYYCARELGGYWGQGTTLTVSS
VL: QAVVTQESALTTSPGETVTLTCRSSTGAVTTGNYPNWVQEKPDHLFTGLIAGTNNRAPGVPARFSGSLIGDKAALTITGAQTEDEAIYFCALWFSSHWVFGGGTKLTVL
notes: Mouse hybridoma monoclonal antibody, IgG 2b; also called Mab 15B6; antibody 15B6
B2: 2B4 anti-mesothelin antibody (IgG2a) (antibody, V domains shown)
VH: EVQLQQSGPELVKPGASVKISCKASGYPFTGHYMHWVKQGHVKSLEWIGRINPYTGAINYNQNFKDKASLSVEKSSSTAYMGLHSLTSEDSAVYYCVRDLGGGYWGQGTTLTVSS
VL: QAVVTQESALTTSPGETVTLTCRSSTGAVTTSNYANWVQEKPDHLFTGLIAGTNNRAPGVPARFSGSLIGDKAALTITGAQPEDEAIFFCALWYSSHWVFGGGTKLTVL
notes: Mouse hybridoma monoclonal antibody, IgG 2a; also called antibody 2B4
B3: 7B5 anti-mesothelin antibody (IgG1) (antibody, V domains shown)
VH: EVQLQQSGPELVKPGTSVKISCKASGYPFTGHYMHWVKQGHVKSLEWIGRINPYTGAINYNQNFKDKASLTVEKSSSTAYMGLHSLTSEDSAVYYCVRDLGGGYWGQGTTLTVSS
VL: QAVVTQESALTTSPGETVTLTCRSSTGAVTTSNYANWVQEKPDHLFTGLIAGTNNRAPGVPARFSGSLIGDKAALTITGAQPEDEAMFFCALWFGSHWVFGGGTKLTVL
notes: Mouse hybridoma monoclonal antibody, IgG 1; also called antibody 7B5

Experiments:
[1] = target: B1; assay: competition ELISA, antibody 30 ng/ml on coated MSLN-Fc, peptide titrated
Protocol: (§1) A competition assay was completed using the following peptides: peptide 1 having the sequence CLVLDLSMQEALS (SEQ ID NO: 61) and peptide 2 having the sequence CSMQEALS (SEQ ID NO: 62). An ELISA plate was coated with MSLN(M)-Fc or MSLN(V)-Fc. After overnight incubation, the plates were blocked and washed. The anti-mesothelin stalk antibodies of Example 1 (30 ng/ml) and peptide 1 or peptide 2 were added at different concentrations (100 micrograms/ml to 0.00001 micrograms/ml). After washing, anti-mouse IgG-HRP conjugate were added. The OD was then measured with ELISA.

[2] = target: B3; assay: as above
Protocol: as §1

[3] = target: B2; assay: as above
Protocol: as §1

[4] = target: T1, mesothelin (296-585) attached to mouse transferrin receptor (TFR) transmembrane domain, on AB1-L9 cells (human; mouse, UniProt Q13421 296-585); assay: binding to transfected AB1-L9 cells
T1 construct: The order of the parts is as printed; also called AB1-L9 cell line

Fc-mesothelin 296-599 = target: T2, Fc-mesothelin 296-599 (human, UniProt Q13421 296-599); assay: ELISA on Fc-mesothelin 296-599
T2 construct: The order of the parts follows the printed name and is not otherwise stated; not shown: Fc part
T2 sequence (Q13421 other isoform, or with tags, fused parts or gaps): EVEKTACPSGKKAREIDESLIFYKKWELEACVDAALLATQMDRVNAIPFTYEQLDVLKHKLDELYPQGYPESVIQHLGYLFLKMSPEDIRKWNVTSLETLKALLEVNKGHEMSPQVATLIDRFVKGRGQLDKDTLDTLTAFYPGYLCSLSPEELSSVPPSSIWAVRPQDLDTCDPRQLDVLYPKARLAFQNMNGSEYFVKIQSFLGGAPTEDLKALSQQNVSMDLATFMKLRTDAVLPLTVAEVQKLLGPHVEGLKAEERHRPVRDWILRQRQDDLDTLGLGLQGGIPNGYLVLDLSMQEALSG

T1 sequence (Q13421 other isoform, or with tags, fused parts or gaps): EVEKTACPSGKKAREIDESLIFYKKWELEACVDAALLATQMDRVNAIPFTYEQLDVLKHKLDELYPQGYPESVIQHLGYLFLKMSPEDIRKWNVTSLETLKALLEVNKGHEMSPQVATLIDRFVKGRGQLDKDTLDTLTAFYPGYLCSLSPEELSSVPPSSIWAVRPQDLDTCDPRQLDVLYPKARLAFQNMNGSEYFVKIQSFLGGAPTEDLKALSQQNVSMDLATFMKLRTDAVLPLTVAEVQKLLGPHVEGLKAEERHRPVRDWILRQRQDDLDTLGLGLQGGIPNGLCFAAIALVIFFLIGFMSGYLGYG

Row | binding result [1] | binding result [2] | binding result [3] | binding result [4] | binding result (Fc-mesothelin 296-599) | Binder
1 | no binding | no binding | no binding | – | – | CSMQEALS (Mesothelin 592-598 with an added N-terminal cysteine) [peptide 2 (CSMQEALS)]
2 | – | – | – | no binding | binds | B1
3 | – | – | – | no binding | binds | B2
4 | – | – | – | no binding | binds | B3
5 | binds | binds | binds | – | – | CLVLDLSMQEALS (Mesothelin 587-598 with an added N-terminal cysteine) [peptide 1 (CLVLDLSMQEALS)]
